IntAct's records for PubMed 32493513

B1: Disrupted in schizophrenia 1 protein (Homo sapiens), Q9NRI5 (parent)
chain: MPGGGPQGAPAAAGGGGVSHRAGSRDCLPPAACFRRRRLARRPGYMRSSTGPGIGFLSPAVGTLFRFPGGVSGEESHHSESRARQCGLDSRGLLVRSPVSKSAAAPTVTSVRGTSAHFGIQLRGGTRLPDRLSWPCGPGSAGWQQEFAAMDSSETLDASWEAACSDGARRVRAAGSLPSAELSSNSCSPGCGPEVPPTPPGSHSAFTSSFSFIRLSLGSAGERGEAEGCPPSREAESHCQSPQEMGAKAASLDGPHEDPRCLSRPFSLLATRVSADLAQAARNSSRPERDMHSLPDMDPGSSSSLDPSLAGCGGDGSSGSGDAHSWDTLLRKWEPVLRDCLLRNRRQMEVISLRLKLQKLQEDAVENDDYDKAETLQQRLEDLEQEKISLHFQLPSRQPALSSFLGHLAAQVQAALRRGATQQASGDDTHTPLRMEPRLLEPTAQDSLHVSITRRDWLLQEKQQLQKEIEALQARMFVLEAKDQQLRREIEEQEQQLQWQGCDLTPLVGQLSLGQLQEVSKALQDTLASAGQIPFHAEPPETIRSLQERIKSLNLSLKEITTKVCMSEKFCSTLRKKVNDIETQLPALLEAKMHAISGNHFWTAKDLTEEIRSLTSEREGLEGLLSKLLVLSSRNVKKLGSVKEDYNRLRREVEHQETAYETSVKENTMKYMETLKNKLCSCKCPLLGKVWEADLEACRLLIQSLQLQEARGSLSVEDERQMDDLEGAAPPIPPRLHSEDKRKTPLKVLEEWKTHLIPSLHCAGGEQKEESYILSAELGEKCEDIGKKLLYLEDQLHTAIHSHDEDLIQSLRRELQMVKETLQAMILQLQPAKEAGEREAAASCMTAGVHEAQA
B2: Disrupted in schizophrenia 1 homolog (Mus musculus), Q811T9 (parent)
chain: MQGGGPRGAPIHSPSHGADSGHGLPPAVAPQRRRLTRRPGYMRSTAGSGIGFLSPAVGMPHPSSAGLTGQQSQHSQSKAGQCGLDPGSHCQASLVGKPFLKSSLVPAVASEGHLHPAQRSMRKRPVHFAVHSKNDSRQSERLTGSFKPGDSGFWQELLSSDSFKSLAPSLDAPWNKGSRGLKTVKPLASPALNGPADIASLPGFQDTFTSSFSFIQLSLGAAGERGEAEGCLPSREAEPLHQRPQEMAAEASSSDRPHGDPRHLWTFSLHAAPGLADLAQVTRSSSRQSECGTVSSSSSDTGFSSQDASSAGGRGDQGGGWADAHGWHTLLREWEPMLQDYLLSNRRQLEVTSLILKLQKCQEKVVEDGDYDTAETLRQRLEELEQEKGRLSWALPSQQPALRSFLGYLAAQIQVALHGATQRAGSDDPEAPLEGQLRTTAQDSLPASITRRDWLIREKQRLQKEIEALQARMSALEAKEKRLSQELEEQEVLLRWPGCDLMALVAQMSPGQLQEVSKALGETLTSANQAPFQVEPPETLRSLRERTKSLNLAVRELTAQVCSGEKLCSSLRRRLSDLDTRLPALLEAKMLALSGSCFSTAKELTEEIWALSSEREGLEMFLGRLLALSSRNSRRLGIVKEDHLRCRQDLALQDAAHKTRMKANTVKCMEVLEGQLSSCRCPLLGRVWKADLETCQLLMQSLQLQEAGSSPHAEDEEQVHSTGEAAQTAALAVPRTPHPEEEKSPLQVLQEWDTHSALSPHCAAGPWKEDSHIVSAEVGEKCEAIGVKLLHLEDQLLGAMYSHDEALFQSLQGELQTVKETLQAMILQLQPTKEAGEASASYPTAGAQETEA

Variants of: B1
Conditions: with drd2_human DRD2, P14416
Chain of drd2_human DRD2, P14416 (P14416 whole entry): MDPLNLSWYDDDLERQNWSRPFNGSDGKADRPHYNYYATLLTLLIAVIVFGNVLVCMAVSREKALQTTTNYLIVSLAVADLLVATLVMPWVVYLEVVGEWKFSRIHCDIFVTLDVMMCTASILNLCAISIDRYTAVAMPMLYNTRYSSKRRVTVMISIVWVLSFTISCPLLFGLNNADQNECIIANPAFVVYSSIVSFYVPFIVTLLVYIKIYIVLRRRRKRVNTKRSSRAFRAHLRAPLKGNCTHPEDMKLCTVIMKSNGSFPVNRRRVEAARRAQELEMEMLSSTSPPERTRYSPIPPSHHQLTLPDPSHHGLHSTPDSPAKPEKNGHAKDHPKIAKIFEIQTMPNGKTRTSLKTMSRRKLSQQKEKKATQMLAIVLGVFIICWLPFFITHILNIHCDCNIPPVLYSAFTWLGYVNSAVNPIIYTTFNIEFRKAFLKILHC

Row | effect of a mutation on the interaction | Variant
1 | decreasing interaction | A83V

Variants of: B1
Conditions: with drd2_human DRD2, P14416
Remark: another data set of the same source

Row | effect of a mutation on the interaction | Variant
2 | increasing interaction | R264Q

Variants of: B2
Conditions: with drd2_human DRD2, P14416

Row | effect of a mutation on the interaction | Variant
3 | increasing interaction | L100P

Variants of: B2
Conditions: with drd2_mouse Drd2, P61168
Chain of drd2_mouse Drd2, P61168 (P61168 whole entry): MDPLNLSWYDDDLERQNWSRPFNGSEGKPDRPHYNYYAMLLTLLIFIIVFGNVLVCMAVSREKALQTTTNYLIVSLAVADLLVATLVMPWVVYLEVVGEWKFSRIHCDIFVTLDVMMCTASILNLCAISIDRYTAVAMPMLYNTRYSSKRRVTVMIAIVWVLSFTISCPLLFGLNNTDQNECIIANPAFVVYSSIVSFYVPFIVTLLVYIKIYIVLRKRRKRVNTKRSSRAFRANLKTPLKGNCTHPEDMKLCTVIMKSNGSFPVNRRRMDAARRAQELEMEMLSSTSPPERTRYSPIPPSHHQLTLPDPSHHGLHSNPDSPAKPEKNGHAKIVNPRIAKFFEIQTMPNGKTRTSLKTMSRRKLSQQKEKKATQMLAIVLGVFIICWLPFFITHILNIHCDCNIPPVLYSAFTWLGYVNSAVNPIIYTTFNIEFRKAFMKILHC

Row | effect of a mutation on the interaction | Variant
4 | increasing interaction | L100P
